From paper PMC4915676, “Dissociation Dynamics of XPC-RAD23B from Damaged DNA Is a Determining Factor of NER Efficiency”

T1: UvrA (UniProt P0A698 1-940)
T1 sequence: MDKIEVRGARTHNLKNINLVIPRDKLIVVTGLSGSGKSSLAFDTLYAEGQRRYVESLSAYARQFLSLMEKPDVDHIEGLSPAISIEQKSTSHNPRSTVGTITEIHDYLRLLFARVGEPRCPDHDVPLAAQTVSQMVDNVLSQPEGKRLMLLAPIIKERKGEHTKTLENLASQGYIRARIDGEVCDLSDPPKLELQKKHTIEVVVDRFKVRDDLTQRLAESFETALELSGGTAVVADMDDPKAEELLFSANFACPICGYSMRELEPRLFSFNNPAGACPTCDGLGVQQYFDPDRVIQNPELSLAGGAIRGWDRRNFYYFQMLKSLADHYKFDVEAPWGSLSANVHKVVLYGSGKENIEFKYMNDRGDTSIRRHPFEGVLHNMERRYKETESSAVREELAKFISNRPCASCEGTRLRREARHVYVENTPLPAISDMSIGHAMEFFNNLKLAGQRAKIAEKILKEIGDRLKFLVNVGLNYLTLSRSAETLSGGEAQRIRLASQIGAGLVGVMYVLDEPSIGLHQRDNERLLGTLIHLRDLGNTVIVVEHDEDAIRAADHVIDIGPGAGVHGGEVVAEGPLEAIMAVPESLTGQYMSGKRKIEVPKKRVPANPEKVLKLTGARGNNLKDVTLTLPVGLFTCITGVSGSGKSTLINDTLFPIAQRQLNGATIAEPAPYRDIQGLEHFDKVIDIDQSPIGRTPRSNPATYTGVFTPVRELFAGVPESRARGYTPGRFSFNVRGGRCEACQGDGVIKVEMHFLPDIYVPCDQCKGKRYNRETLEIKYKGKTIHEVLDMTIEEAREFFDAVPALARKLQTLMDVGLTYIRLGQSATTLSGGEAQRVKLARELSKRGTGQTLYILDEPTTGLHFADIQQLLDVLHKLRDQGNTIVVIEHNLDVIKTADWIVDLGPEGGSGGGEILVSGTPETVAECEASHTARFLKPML

B1: NarI-G1 mono-FAAF 55-mer (dsDNA)
DNA 1: CCACTCCTATCCACCATCCATCTTACTCTCGGCGCCATCACCACTCACCACCACA
DNA 2: TGTGGTGGTGAGTGGTGATGGCGCCGAGAGTAAGATGGATGGTGGATAGGAGTGG
modifications: dG-FAAF at G31 (G1) of strand 1
B2: NarI-G2G3 di-FAAF 55-mer (dsDNA)
DNA 1: B1 DNA 1
DNA 2: B1 DNA 2
modifications: dG-FAAF at G32 and G34 (G2, G3) of strand 1
B3: NarI-G1G2 di-FAAF 55-mer (dsDNA)
DNA 1: B1 DNA 1
DNA 2: B1 DNA 2
modifications: dG-FAAF at G31 and G32 (G1, G2) of strand 1
B4: NarI-G1G3 di-FAAF 55-mer (dsDNA)
DNA 1: B1 DNA 1
DNA 2: B1 DNA 2
modifications: dG-FAAF at G31 and G34 (G1, G3) of strand 1
B5: NarI-G3 mono-FAAF 55-mer (dsDNA)
DNA 1: B1 DNA 1
DNA 2: B1 DNA 2
modifications: dG-FAAF at G34 (G3) of strand 1
B6: NarI-G2 mono-FAAF 55-mer (dsDNA)
DNA 1: B1 DNA 1
DNA 2: B1 DNA 2
modifications: dG-FAAF at G32 (G2) of strand 1

Legend:
UvrA = target: T1, UvrA; experiment: SPR; 0.5 mM ATP, 5 mM Mg2+; SPR: HBS-P+ (10 mM HEPES, 150 mM NaCl, 0.05% P20), 5 mM MgCl2, 1 mM DTT, 100 ug/mL BSA (+0.5 mM ATP for UvrA), pH and temperature not stated; EMSA: 20 mM Hepes-KOH pH 7.9, 75 mM KCl, 5 mM MgCl2, 1 mM DTT, 5% glycerol, 100 ug/mL BSA, 30 C; settings: protein: recombinant; chain copies: 2; label: 5'-biotin on strand 1; blunt
XPC-RAD23B [1] = target: T2, XPC-RAD23B (Homo sapiens, UniProt Q01831;P54727 1-940;1-409); experiment: SPR; 5 mM Mg2+; SPR: HBS-P+ (10 mM HEPES, 150 mM NaCl, 0.05% P20), 5 mM MgCl2, 1 mM DTT, 100 ug/mL BSA (+0.5 mM ATP for UvrA), pH and temperature not stated; EMSA: 20 mM Hepes-KOH pH 7.9, 75 mM KCl, 5 mM MgCl2, 1 mM DTT, 5% glycerol, 100 ug/mL BSA, 30 C; settings: protein: recombinant; copies: 1;1; label: 5'-biotin on strand 1; blunt
T2 sequence (Q01831 whole entry, chain 1 of 2): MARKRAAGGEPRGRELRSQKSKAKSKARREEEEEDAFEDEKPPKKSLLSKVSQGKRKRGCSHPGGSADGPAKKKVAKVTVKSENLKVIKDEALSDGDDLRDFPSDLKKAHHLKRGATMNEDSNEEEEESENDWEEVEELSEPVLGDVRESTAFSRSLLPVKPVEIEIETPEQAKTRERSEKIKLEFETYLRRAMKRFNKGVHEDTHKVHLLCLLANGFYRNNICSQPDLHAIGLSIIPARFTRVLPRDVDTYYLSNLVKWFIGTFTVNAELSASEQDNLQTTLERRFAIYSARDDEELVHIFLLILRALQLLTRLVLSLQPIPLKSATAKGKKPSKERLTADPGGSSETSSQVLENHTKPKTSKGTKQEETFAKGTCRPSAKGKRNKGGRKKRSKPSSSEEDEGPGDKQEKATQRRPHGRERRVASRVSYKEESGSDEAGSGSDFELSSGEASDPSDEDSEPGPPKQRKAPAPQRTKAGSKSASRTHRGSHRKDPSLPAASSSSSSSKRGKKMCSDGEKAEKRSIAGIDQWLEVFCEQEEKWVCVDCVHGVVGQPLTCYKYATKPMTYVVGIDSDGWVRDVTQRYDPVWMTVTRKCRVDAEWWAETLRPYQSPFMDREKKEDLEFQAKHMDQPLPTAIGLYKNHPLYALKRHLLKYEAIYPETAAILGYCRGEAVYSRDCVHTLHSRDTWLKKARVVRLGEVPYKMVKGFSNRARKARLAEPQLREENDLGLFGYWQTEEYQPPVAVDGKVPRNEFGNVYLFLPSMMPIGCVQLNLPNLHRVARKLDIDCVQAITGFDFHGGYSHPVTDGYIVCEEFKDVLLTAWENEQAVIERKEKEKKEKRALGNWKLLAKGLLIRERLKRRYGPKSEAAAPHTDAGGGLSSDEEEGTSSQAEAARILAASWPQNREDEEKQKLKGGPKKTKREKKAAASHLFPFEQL
T2 sequence (P54727 whole entry, chain 2 of 2): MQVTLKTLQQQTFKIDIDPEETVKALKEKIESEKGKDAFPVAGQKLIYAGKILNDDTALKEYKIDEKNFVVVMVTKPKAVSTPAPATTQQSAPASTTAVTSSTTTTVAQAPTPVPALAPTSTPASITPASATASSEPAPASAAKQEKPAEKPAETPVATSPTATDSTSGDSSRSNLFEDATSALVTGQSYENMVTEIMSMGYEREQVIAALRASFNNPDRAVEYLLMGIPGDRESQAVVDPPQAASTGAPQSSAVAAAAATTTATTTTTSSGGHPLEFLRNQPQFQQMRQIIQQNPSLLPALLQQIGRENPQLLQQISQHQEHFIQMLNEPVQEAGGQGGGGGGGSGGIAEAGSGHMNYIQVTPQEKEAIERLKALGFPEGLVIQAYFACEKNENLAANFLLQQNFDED

XPC-RAD23B [2] = target: T2, XPC-RAD23B; experiment: SPR; 5 mM Mg2+; error as printed is 0.01e-9; SPR: HBS-P+ (10 mM HEPES, 150 mM NaCl, 0.05% P20), 5 mM MgCl2, 1 mM DTT, 100 ug/mL BSA (+0.5 mM ATP for UvrA), pH and temperature not stated; EMSA: 20 mM Hepes-KOH pH 7.9, 75 mM KCl, 5 mM MgCl2, 1 mM DTT, 5% glycerol, 100 ug/mL BSA, 30 C; settings: protein: recombinant; copies: 1;1; label: 5'-biotin on strand 1; blunt

| Binder | Kd (UvrA) | Kd (XPC-RAD23B [1]) | Kd (XPC-RAD23B [2]) |
| --- | --- | --- | --- |
| B1 | 1.3 nM | 1.8 nM |  |
| B2 | 0.5 nM | 0.0042 nM |  |
| B3 | 0.49 nM | 0.076 nM |  |
| B4 | 0.27 nM | 0.016 nM |  |
| B5 | 3.9 nM |  | 1.1 nM |
| B6 | 2.4 nM | 0.9 nM |  |
